Columns and labels:
Settings in all cases: both partners purified
[1] = target: Cy3-labelled, prenylated Cdc42, wild type, GDP-bound (Cy3 at the N-terminus (Cy3 N-t labeled LPETGG peptide joined by sortase); geranylgeranyl by in vitro prenylation (C-terminal prenyl moiety); GDP-bound); test: membrane extraction (wash-off) assay on supported lipid bilayers, TIRF; Cy3-labelled prenylated GTPase (200 nM) equilibrated on 100% DOPC supported lipid bilayers, flushed at 10 µL/sec with imaging buffer (20 mM HEPES pH 7.0, 150 mM KCl, 1.5 mM MgCl2, 0.5 mM EGTA, 100 µM GDP/GTP) alone or with 5 µM RhoGDI; decay fitted with a monoexponential function
Sequence of Cy3-labelled, prenylated Cdc42, wild type, GDP-bound (Cy3 at the N-terminus (Cy3 N-t labeled LPETGG peptide joined by sortase); geranylgeranyl by in vitro prenylation (C-terminal prenyl moiety); GDP-bound) (P60953 whole entry): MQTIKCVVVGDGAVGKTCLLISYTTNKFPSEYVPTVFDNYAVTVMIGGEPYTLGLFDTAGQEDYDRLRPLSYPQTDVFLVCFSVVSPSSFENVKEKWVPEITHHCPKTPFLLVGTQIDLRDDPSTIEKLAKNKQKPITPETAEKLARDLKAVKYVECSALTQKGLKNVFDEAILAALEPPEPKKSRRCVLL

[2] = target: Cy3-labelled, prenylated Rho G14V, GTPγS-bound (Cy3 at the N-terminus (Cy3 N-t labeled LPETGG peptide joined by sortase); geranylgeranyl by in vitro prenylation (C-terminal prenyl moiety); GTPγS-bound); test: membrane extraction (wash-off) assay on supported lipid bilayers, TIRF; as above, GDI titrated between 0 and 20 µM; Koff of the GTPase from the membrane plotted against GDI concentration and fitted with a hyperbolic function (Kd, Vmax); apparent affinities
Sequence of Cy3-labelled, prenylated Rho G14V, GTPγS-bound (Cy3 at the N-terminus (Cy3 N-t labeled LPETGG peptide joined by sortase); geranylgeranyl by in vitro prenylation (C-terminal prenyl moiety); GTPγS-bound) (chain, as listed by the source G14V): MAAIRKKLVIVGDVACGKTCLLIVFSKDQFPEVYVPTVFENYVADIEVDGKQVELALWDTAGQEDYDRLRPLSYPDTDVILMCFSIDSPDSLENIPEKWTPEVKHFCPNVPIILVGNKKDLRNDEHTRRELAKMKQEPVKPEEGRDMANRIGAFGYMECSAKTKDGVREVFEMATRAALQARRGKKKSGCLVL

[3] = target: Cy3-labelled, prenylated Cdc42 G12V, GTPγS-bound (Cy3 at the N-terminus (Cy3 N-t labeled LPETGG peptide joined by sortase); geranylgeranyl by in vitro prenylation (C-terminal prenyl moiety); GTPγS-bound); test: as above
Sequence of Cy3-labelled, prenylated Cdc42 G12V, GTPγS-bound (Cy3 at the N-terminus (Cy3 N-t labeled LPETGG peptide joined by sortase); geranylgeranyl by in vitro prenylation (C-terminal prenyl moiety); GTPγS-bound) (chain, as listed by the source G12V): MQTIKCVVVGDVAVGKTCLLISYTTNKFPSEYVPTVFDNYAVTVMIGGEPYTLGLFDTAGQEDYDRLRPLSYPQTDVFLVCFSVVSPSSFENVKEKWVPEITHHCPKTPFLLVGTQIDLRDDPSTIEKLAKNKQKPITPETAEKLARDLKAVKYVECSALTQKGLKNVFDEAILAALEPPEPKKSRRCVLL

fold acceleration of the dissociation of Cdc42:GDP from the membrane by excess GDI [1]: ~20 fold
fold difference in extraction, GDP-bound GTPase over GTPγS-bound G14V [2]: 1.5 fold
fold difference in extraction, GDP-bound GTPase over GTPγS-bound G12V [3]: 1.5 fold
B1: Xenopus laevis RhoGDI, wild type (natural protein)
chain: MAEHEPTPEQLHQIAAENQDEEHSVDYKPPAQKSIKEIQELDQDDESLRKYKEALLGSLPSSADPEASNVVVTKLTLLCDCAPGPLELDLTGDLEKFKKQSFTLKEGVEYRIKISFKVNKEIVSGLRYQQQTYRKGVRLDRTRYMVGSYGPRVDEYEFLTPIEEAPNGMLARGCYNIKSLFTDDDKSNHLSWEWNLHIKNDWKS
